Where only a bound is given, the exact number is not on record here.

The test concerns the target human complement C5 with an unidentified amino acid substitution at Arg885 (in serum of the Example 4 patient) (human), P01031. Kind of test: cell-based or functional assay.

B1: Coversin protein, Q5YD59 19-168 (protein)
chain: DSESDCTGSEPVDAFQAFSEGKEAYVLVRSTDPKARDCLKGEPAGEKQDNTLPVMMTFKNGTDWASTDWTFTLDGAKVTATLGNLTQNREVVYDSQSHHCHVDKVEKEVPDYEMWMLDAGGLEVEVECCRQKLEELASGRNQMYPHLKDC
The molecule B1 gave a residual CH50 (U Eq/ml) as % of baseline in serum of the Example 4 patient at Coversin approximately 15 ug/ml (% of baseline CH50) of less than 5.

(Values after patent US20210283221A1.)
